doi:10.1101/2020.12.22.424058, “Structural basis for the dimerization-dependent CRISPR-Cas12f nuclease” (bioRxiv, 2020)

Columns and labels:
[1] = biological target: the molecule itself; experiment: cryo-EM structure; Cas12f D510A with sgRNA (222 nt) and target dsDNA (60 bp, TTTA PAM) at 1:1.2:1.3, 37°C, then SEC (Superdex 200) in 25 mM Tris-HCl pH 7.6, 150 mM NaCl, 2 mM DTT, 1 mM MgCl2; ternary complex, 3.1 Å; the two Cas12f copies are bound to one sgRNA
[2] = biological target: the molecule itself; experiment: cryo-EM structure; Cas12f with sgRNA at 1:1.2, 37°C for 30 min in 25 mM Tris-HCl pH 7.6, 150 mM NaCl, 2 mM DTT, 1 mM MgCl2; binary complex, 3.9 Å; the two Cas12f copies are bound to one sgRNA

Protein	stoichiometry N [1]	binding result [2]
Un1Cas12f1^D510A (enzyme, UniProt A0A482D308 1-529, looked up, Cas12f (UnCas12f1, Un1Cas12f1; also known as Cas14), 529 amino acids, 61.5 kDa; plasmid Addgene #112500; Two copies (Cas12f.1 and Cas12f.2) stand in the complex with one sgRNA and the target dsDNA; The model lacks three N-terminal and four C-terminal residues; also called Cas12f D510A mutant; source: E. coli BL21(DE3), purified (Ni-NTA, HiTrap SP HP, Superdex 200); not shown: 10xHis, N-terminal, …) MAKNTITKTLKLRIVRPYNSAEVEKIVADEKNNREKIALEKNKDKVKEACSKHLKVAAYCTTQVERNACLFCKARKLDDKFYQKLRGQFPDAVFWQEISEIFRQLQKQAAEIYNQSLIELYYEIFIKGKGIANASSVEHYLSDVCYTRAAELFKNAAIASGLRSKIKSNFRLKELKNMKSGLPTTKSDNFPIPLVKQKGGQYTGFEISNHNSDFIIKIPFGRWQVKKEIDKYRPWEKFDFEQVQKSPKPISLLLSTQRRKRNKGWSKDEGTEAEIKKVMNGDYQTSYIEVKRGSKIGEKSAWMLNLSIDVPKIDKGVDPSIIGGIDVGVKSPLVCAINNAFSRYSISDNDLFHFNKKMFARRRILLKKNRHKRAGHGAKNKLKPITILTEKSERFRKKLIERWACEIADFFIKNKVGTVQMENLESMKRKEDSYFNIRLRGFWPYAEMQNKIEFKLKQYGIEIRKVAPNNTSKTCSKCGHLNNYFNFEYRKKNKFPHFKCEKCNFKENAAYNAALNISNPKLKSTKEEP	2	–
Cas12f (UnCas12f1) (enzyme, UniProt A0A482D308 1-529, looked up, Cas12f (UnCas12f1, Un1Cas12f1; also known as Cas14), 529 amino acids, 61.5 kDa; plasmid Addgene #112500; The methods say only 'Cas12f proteins' for the binary complex with sgRNA; also called Un1Cas12f1; Cas14; source: E. coli BL21(DE3), purified (Ni-NTA, HiTrap SP HP, Superdex 200); not shown: 10xHis, N-terminal, cleaved; MBP, N-terminal, cleaved) MAKNTITKTLKLRIVRPYNSAEVEKIVADEKNNREKIALEKNKDKVKEACSKHLKVAAYCTTQVERNACLFCKARKLDDKFYQKLRGQFPDAVFWQEISEIFRQLQKQAAEIYNQSLIELYYEIFIKGKGIANASSVEHYLSDVCYTRAAELFKNAAIASGLRSKIKSNFRLKELKNMKSGLPTTKSDNFPIPLVKQKGGQYTGFEISNHNSDFIIKIPFGRWQVKKEIDKYRPWEKFDFEQVQKSPKPISLLLSTQRRKRNKGWSKDEGTEAEIKKVMNGDYQTSYIEVKRGSKIGEKSAWMLNLSIDVPKIDKGVDPSIIGGIDVGVKSPLVCAINNAFSRYSISDNDLFHFNKKMFARRRILLKKNRHKRAGHGAKNKLKPITILTEKSERFRKKLIERWACEIADFFIKNKVGTVQMENLESMKRKEDSYFNIRLRGFWPYAEMQNKIEFKLKQYGIEIRKVAPNNTSKTCSKCGHLNNYFNFEYRKKNKFPHFKCEKCNFKENADYNAALNISNPKLKSTKEEP	–	binds
